Results on 1 substance are retold here after PMC13618070.

In this test the target is DCR-1•DRH-1 complex (DCR-1•(OSF)DRH-1) (C. elegans) (UniProt P34529). As to the kind of experiment: pull-down.

In turn, “RDE-4 truncation R1R2 (dsRBM1 and dsRBM2, ends with D243) (from UniProt G5EBF5 1-243) (domain or fragment)” came in with a percent recovery normalized to WT RDE-4 of 8%.
